Assay [1] deals with Angiotensin-I Converting Enzyme. Put plainly: cell-based or functional assay.
Assay [2] concerns the target Angiotensin-I Converting Enzyme (ACE). Put plainly: cell-based or functional assay.

Where “and” joins values, the source holds several entries; their conditions need not be identical. Equal values may be shown once.

Egg White/Alcalase (LS 250903): in assay [1], the IC50 (mg/mL), ACE inhibition (Hip-His-Leu assay) stood at 0.46 mg/mL.

EggWhite 1101/Alcalase hydrolysate: in assay [2], the inhibition (%) at 0.0625 mg/ml was 19.6% and 10.7%; the inhibition (%) at 0.125 mg/ml was 34.2% and 12.8%; the inhibition (%) at 0.25 mg/ml is 46.5% and 32.1%; the inhibition (%) at 0.5 mg/ml was 63.1% and 39.9%. Moreover, in assay [2], the inhibition (%) at 1 mg/ml is 66.5% and 71.7%.

With Egg yolk/Newlase F hydrolysate, in assay [2], the ACE inhibition (% inhibition) at 0.5 mg/ml was 57% and 51%; the inhibition (%) at 0.0625 mg/ml is 15.5% and 21.6%; the inhibition (%) at 0.125 mg/ml was 21.7% and 18.2%; the inhibition (%) at 0.25 mg/ml is 24.1% and 36.1%. Moreover, in assay [2], the inhibition (%) at 0.5 mg/ml was 51.3% and 57.3%; the inhibition (%) at 1 mg/ml was 69.5% and 80%.

Take Ovotransferrin/PEM hydrolysate: in assay [2], the ACE inhibition (% inhibition) at 0.5 mg/ml is 55% and 52% and 57%; the inhibition (%) at 0.0625 mg/ml was -19.4% and -10.7%; the inhibition (%) at 0.25 mg/ml is 9.8% and 31.8%; the inhibition (%) at 0.5 mg/ml is 52.4% and 56.6%. Moreover, in assay [2], the inhibition (%) at 1 mg/ml was 69.1% and 73.8%.

These data come from patent US20090029005A1.
